Test system: Escherichia coli TOP10
Assay: shrunken log2 fold change of peptide-encoding DNA abundance (4.5 h post-induction vs induction); higher = less antimicrobial activity (less host growth inhibition)
Conditions: time post-induction: 4.5 h; library: site-saturation at positions 5, 18, 19, 20
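Note: peptides expressed intracellularly from a pBAD plasmid library in pooled LB shake-flask culture, induced with 0.3% L-arabinose, DNA abundance read by NGS, three biological replicates, DESeq2 with apeglm shrinkage.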

Row | Sequence | shrunken log2 fold change
1 | RRIRPRPPRLPRPRPRPHKRPRP | 0.0853
2 | RRIRPRPPRLPRPRPRPHLNPRP | -0.517
3 | RRIRPRPPRLPRPRPRPHLTPRP | 0.185
4 | RRIRPRPPRLPRPRPRPHMTPRP | -0.47
5 | RRIRPRPPRLPRPRPRPHNDPRP | -0.566
6 | RRIRPRPPRLPRPRPRPHNFPRP | 0.0735
7 | RRIRPRPPRLPRPRPRPHPIPRP | 0.0162
8 | RRIRPRPPRLPRPRPRPHPMPRP | -0.0882
9 | RRIRPRPPRLPRPRPRPHQLPRP | 0.0761
10 | RRIRPRPPRLPRPRPRPHREPRP | -0.176
11 | RRIRPRPPRLPRPRPRPHRKPRP | -0.0741
12 | RRIRPRPPRLPRPRPRPHRMPRP | -0.465
13 | RRIRPRPPRLPRPRPRPHSEPRP | -0.0259
14 | RRIRPRPPRLPRPRPRPHSIPRP | -0.418
15 | RRIRPRPPRLPRPRPRPHTHPRP | -0.434
16 | RRIRPRPPRLPRPRPRPHYLPRP | -0.906
17 | RRIRPRPPRLPRPRPRPHYRPRP | -0.112
18 | RRIRPRPPRLPRPRPRPHYWPRP | -0.41
19 | RRIRPRPPRLPRPRPRPIAEPRP | -0.0633
20 | RRIRPRPPRLPRPRPRPIAFPRP | -0.00102
21 | RRIRPRPPRLPRPRPRPICHPRP | -0.0574
22 | RRIRPRPPRLPRPRPRPIDNPRP | -0.15

Row | Sequence | shrunken log2 fold change
23 | RRIRPRPPRLPRPRPRPIEKPRP | 0.0388
24 | RRIRPRPPRLPRPRPRPIELPRP | -0.0296
25 | RRIRPRPPRLPRPRPRPIHPPRP | 0.172
26 | RRIRPRPPRLPRPRPRPIHQPRP | -0.115
27 | RRIRPRPPRLPRPRPRPIHYPRP | -0.967
28 | RRIRPRPPRLPRPRPRPIIEPRP | -0.138
29 | RRIRPRPPRLPRPRPRPIKWPRP | 0.0716
30 | RRIRPRPPRLPRPRPRPILFPRP | -0.124
31 | RRIRPRPPRLPRPRPRPILTPRP | -0.211
32 | RRIRPRPPRLPRPRPRPIMHPRP | -0.0526
33 | RRIRPRPPRLPRPRPRPIMNPRP | -0.799
34 | RRIRPRPPRLPRPRPRPIMSPRP | 0.0779
35 | RRIRPRPPRLPRPRPRPINAPRP | -0.292
36 | RRIRPRPPRLPRPRPRPINLPRP | -0.994
37 | RRIRPRPPRLPRPRPRPINSPRP | -0.236
38 | RRIRPRPPRLPRPRPRPIPHPRP | -0.163
39 | RRIRPRPPRLPRPRPRPIPKPRP | 0.28
40 | RRIRPRPPRLPRPRPRPIPRPRP | 0.449
41 | RRIRPRPPRLPRPRPRPIQCPRP | 0.0062
42 | RRIRPRPPRLPRPRPRPIQEPRP | -0.019
43 | RRIRPRPPRLPRPRPRPIQRPRP | 0.364
44 | RRIRPRPPRLPRPRPRPIRCPRP | 0.125

Row | Sequence | shrunken log2 fold change
45 | RRIRPRPPRLPRPRPRPIRNPRP | -0.0919
46 | RRIRPRPPRLPRPRPRPISGPRP | -0.154
47 | RRIRPRPPRLPRPRPRPISHPRP | -0.118
48 | RRIRPRPPRLPRPRPRPISPPRP | -0.115
49 | RRIRPRPPRLPRPRPRPISWPRP | -0.00365
50 | RRIRPRPPRLPRPRPRPIWSPRP | 0.0653
51 | RRIRPRPPRLPRPRPRPKAQPRP | -0.155
52 | RRIRPRPPRLPRPRPRPKCCPRP | 0.228
53 | RRIRPRPPRLPRPRPRPKCVPRP | 0.0688
54 | RRIRPRPPRLPRPRPRPKDFPRP | -0.141
55 | RRIRPRPPRLPRPRPRPKDQPRP | 0.111
56 | RRIRPRPPRLPRPRPRPKEGPRP | -0.00237
57 | RRIRPRPPRLPRPRPRPKESPRP | 0.13
58 | RRIRPRPPRLPRPRPRPKFIPRP | -0.308
59 | RRIRPRPPRLPRPRPRPKFLPRP | 0.0917
60 | RRIRPRPPRLPRPRPRPKFSPRP | -0.125
61 | RRIRPRPPRLPRPRPRPKGHPRP | 0.106
62 | RRIRPRPPRLPRPRPRPKHSPRP | -0.155
63 | RRIRPRPPRLPRPRPRPKKWPRP | -0.0589
64 | RRIRPRPPRLPRPRPRPKLKPRP | 0.105
65 | RRIRPRPPRLPRPRPRPKLQPRP | -0.00543
66 | RRIRPRPPRLPRPRPRPKLTPRP | 0.421

Row | Sequence | shrunken log2 fold change
67 | RRIRPRPPRLPRPRPRPKLVPRP | 0.0371
68 | RRIRPRPPRLPRPRPRPKNTPRP | -0.218
69 | RRIRPRPPRLPRPRPRPKRFPRP | 0.297
70 | RRIRPRPPRLPRPRPRPKRRPRP | -0.093
71 | RRIRPRPPRLPRPRPRPKVQPRP | 0.327
72 | RRIRPRPPRLPRPRPRPKYSPRP | -0.55
73 | RRIRPRPPRLPRPRPRPLANPRP | -0.0209
74 | RRIRPRPPRLPRPRPRPLCDPRP | -0.312
75 | RRIRPRPPRLPRPRPRPLEIPRP | -0.199
76 | RRIRPRPPRLPRPRPRPLGAPRP | 0.426
77 | RRIRPRPPRLPRPRPRPLGSPRP | -0.0459
78 | RRIRPRPPRLPRPRPRPLGVPRP | 0.361
79 | RRIRPRPPRLPRPRPRPLHCPRP | -0.382
80 | RRIRPRPPRLPRPRPRPLHGPRP | 0.0827
81 | RRIRPRPPRLPRPRPRPLHIPRP | 0.656
82 | RRIRPRPPRLPRPRPRPLHLPRP | -0.311
83 | RRIRPRPPRLPRPRPRPLHWPRP | 0.481
84 | RRIRPRPPRLPRPRPRPLKIPRP | -0.169
85 | RRIRPRPPRLPRPRPRPLKYPRP | -0.424
86 | RRIRPRPPRLPRPRPRPLMEPRP | 0.0162
87 | RRIRPRPPRLPRPRPRPLNDPRP | -0.298
88 | RRIRPRPPRLPRPRPRPLNEPRP | -0.348

Row | Sequence | shrunken log2 fold change
89 | RRIRPRPPRLPRPRPRPLNSPRP | -0.262
90 | RRIRPRPPRLPRPRPRPLPTPRP | 0.42
91 | RRIRPRPPRLPRPRPRPLQMPRP | 0.205
92 | RRIRPRPPRLPRPRPRPLQPPRP | 0.273
93 | RRIRPRPPRLPRPRPRPLRCPRP | 0.394
94 | RRIRPRPPRLPRPRPRPLRLPRP | 0.2
95 | RRIRPRPPRLPRPRPRPLRYPRP | 0.17
96 | RRIRPRPPRLPRPRPRPLSLPRP | 0.0584
97 | RRIRPRPPRLPRPRPRPLSRPRP | 0.0978
98 | RRIRPRPPRLPRPRPRPLTKPRP | 0.0122
99 | RRIRPRPPRLPRPRPRPLTRPRP | 0.103
100 | RRIRPRPPRLPRPRPRPLVSPRP | 0.00371
101 | RRIRPRPPRLPRPRPRPLYFPRP | -0.602
102 | RRIRPRPPRLPRPRPRPLYPPRP | -0.244
103 | RRIRPRPPRLPRPRPRPMCIPRP | -0.0687
104 | RRIRPRPPRLPRPRPRPMCRPRP | -0.263
105 | RRIRPRPPRLPRPRPRPMDDPRP | 0.00641
106 | RRIRPRPPRLPRPRPRPMDIPRP | -0.158
107 | RRIRPRPPRLPRPRPRPMEYPRP | -0.00176
108 | RRIRPRPPRLPRPRPRPMFYPRP | -0.449
109 | RRIRPRPPRLPRPRPRPMGAPRP | 0.117
